This is an account of results in article PMC5216124, “Cell division orientation is coupled to cell–cell adhesion by the E-cadherin/LGN complex” (Nature Communications, 2017).

This assay has as its target T1, LGN-TPR:S-tag (human, UniProt P81274 8-311).
T1 construct: LGN, human, NM_013296.4, TPR repeats, amino acids 8-311; also called LGN-TPR with C-terminal S-tag; not shown: S-tag, C-terminal, kept
T1 sequence (looked up): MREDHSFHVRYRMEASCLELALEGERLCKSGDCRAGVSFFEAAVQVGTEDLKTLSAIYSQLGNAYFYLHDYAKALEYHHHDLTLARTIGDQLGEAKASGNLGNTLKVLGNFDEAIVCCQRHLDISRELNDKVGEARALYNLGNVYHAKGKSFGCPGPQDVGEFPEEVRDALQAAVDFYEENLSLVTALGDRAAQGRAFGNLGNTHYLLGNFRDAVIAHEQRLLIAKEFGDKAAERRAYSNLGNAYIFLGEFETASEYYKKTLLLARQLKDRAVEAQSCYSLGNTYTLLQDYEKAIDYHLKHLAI
The assay is described as follows: pull-down; in vitro competition: E-cad-cyto/LGN-TPR:S-tag complex (GST cleaved off with TEV) held on S-protein agarose by the S-tag; 100 μg NuMA (1808-1988) added, 4 °C overnight; blotted for LGN and E-cadherin. The conditions noted are these: both partners purified.

B1: region of human NuMA containing the LGN-binding site (domain or fragment, UniProt Q14980-1 1808-1988, looked up)
chain: RRRTTQIINITMTKKLDVEEPDSANSSFYSTRSAPASQASLRATSSTQSLARLGSPDYGNSALLSLPGYRPTTRSSARRSQAGVSSGAPPGRNSFYMGTCQDEPEQLDDWNRIAELQQRNRVCPPHLKTCYPLESRPSLSLGTITDEEMKTGDPQETLRRASMQPIQIAEGTGITTRQQRK
notes: also called NuMA peptide; source: E. coli BL21 (DE3), purified (glutathione agarose, TEV cleavage, MonoQ)
For the molecule B1, the binding result is “binds”.
